In US12448423 (Xencor, dated 2025):

T1: HIS-tagged human NKG2D (human, UniProt P26718 73-216, limits assumed)
T1 construct: Captured on HIS1K biosensors; not shown: HIS tag
T1 sequence (looked up): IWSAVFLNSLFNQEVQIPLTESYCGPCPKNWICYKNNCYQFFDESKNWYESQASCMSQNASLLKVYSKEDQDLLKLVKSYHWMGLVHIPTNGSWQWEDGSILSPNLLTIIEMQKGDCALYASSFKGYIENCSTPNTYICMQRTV


biological target: T1, HIS-tagged human NKG2D; assay: Octet (BLI): His-tagged human NKG2D captured on HIS1K biosensors, dipped into 100 nM bivalent mAb

Kd [nM]	koff [s⁻¹]	kon [M⁻¹ s⁻¹]	Binder
0.199	0.000145	727000	XENP27610 (antibody, human IgG1, kappa, V domains shown, humanized bivalent anti-NKG2D mAb, IgG1 with ablation variants; also called mAb C[NKG2D]_H2L2_IgG1_PVA_/S267K) VH: QVQLVQSGAEVKKPGASVKVSCKVSGFSLTIYGVHWVRQAPGQGLEWMGVIWSGGSTDYNAKFQGRVTMTKDNSKRTVYMELSSLRSEDTAVYYCSRKSHDGYYGVMDYWGQGTTVTVSS VL: DIQLTQSPSSLSASVGDRVTITCRASQSIGTSIHWYQQKPGKSPKLLIKYASESISGIPSRFSGSGSGTDFTLTISSLQPEDFATYYCQQSNTWPLTFGAGTKVEIKR
0.506	0.000357	706000	XENP27607 (antibody, human IgG1, kappa, V domains shown, humanized bivalent anti-NKG2D mAb, IgG1 with ablation variants; also called mAb C[NKG2D]_H1L1_IgG1_PVA_/S267K) VH: EVQLVESGGGLVQPGGSLRLSCAVSGFSLTIYGVHWVRQAPGKGLEWVSVIWSGGSTDYNAKVKGRFTISKDNSKRTVYLQMNSLRAEDTAVYYCSRKSHDGYYGVMDYWGQGTTVTVSS VL: DIQLTQSPDFQSVTPKEKVTITCRASQSIGTSIHWYQQKPDQSPKLLIKYASESISGIPSRFSGSGSGTDFTLTINSLEAEDAATYYCQQSNTWPLTFGAGTKVEIKR
0.167	8.64e-05	518000	XENP27609 (antibody, human IgG1, kappa, V domains shown, humanized bivalent anti-NKG2D mAb, IgG1 with ablation variants; also called mAb C[NKG2D]_H2L1_IgG1_PVA_/S267K) VH: QVQLVQSGAEVKKPGASVKVSCKVSGFSLTIYGVHWVRQAPGQGLEWMGVIWSGGSTDYNAKFQGRVTMTKDNSKRTVYMELSSLRSEDTAVYYCSRKSHDGYYGVMDYWGQGTTVTVSS VL: DIQLTQSPDFQSVTPKEKVTITCRASQSIGTSIHWYQQKPDQSPKLLIKYASESISGIPSRFSGSGSGTDFTLTINSLEAEDAATYYCQQSNTWPLTFGAGTKVEIKR
0.371	0.000308	832000	XENP27608 (antibody, human IgG1, kappa, V domains shown, humanized bivalent anti-NKG2D mAb, IgG1 with ablation variants; also called mAb C[NKG2D]_H1L2_IgG1_PVA_/S267K) VH: EVQLVESGGGLVQPGGSLRLSCAVSGFSLTIYGVHWVRQAPGKGLEWVSVIWSGGSTDYNAKVKGRFTISKDNSKRTVYLQMNSLRAEDTAVYYCSRKSHDGYYGVMDYWGQGTTVTVSS VL: DIQLTQSPSSLSASVGDRVTITCRASQSIGTSIHWYQQKPGKSPKLLIKYASESISGIPSRFSGSGSGTDFTLTISSLQPEDFATYYCQQSNTWPLTFGAGTKVEIKR
1.95	0.00144	740000	XENP27602 (antibody, human IgG1, kappa, V domains shown, humanized bivalent anti-NKG2D mAb, IgG1 with ablation variants; also called mAb B[NKG2D]_H2_L1.1_IgG1_PVA_/S267K) VH: EVQLVQSGAEVKKPGESLRISCKASGYTFTSYWMNWVRQMPGKGLEWMGRIDPYDSETHYNPSFQGHVTISVDKSISTAYLQWSSLKASDTAMYYCAKMGDYSFDYWGQGTLVTVSS VL: DIQLTQSPSSLSASVGDRVTITCRASGNIHNYLAWYQQKPGKSPKVLVYNAKTLADGVPSRFSGSGSGTDYTLTISSLQPEDFATYYCQHFWSTPWTFGGGTKVEIKR
1.01	0.00194	1.91e+06	XENP27604 (antibody, human IgG1, kappa, V domains shown, humanized bivalent anti-NKG2D mAb, IgG1 with ablation variants; also called mAb B[NKG2D]_H3L1_IgG1_PVA_/S267K) VH: EVQLVESGGGLVQPGGSLRLSCAASGYTFTSYWMNWVRQAPGKGLVWVSRIDPYDSETHYNQKVKGRFTISVDKAKSTAYLQMNSLRAEDTAVYYCAKMGDYSFDYWGQGTLVTVSS VL: DIQLTQSPSSLSASVGDRVTITCRASGNIHNYLAWYQQKPGKSPKVLVYNAKTLADGVPSRFSGSGSGTDYTLTISSLQPEDFATYYCQHFWSTTWTFGGGTKVEIKR
0.703	0.00121	1.73e+06	XENP27603 (antibody, human IgG1, kappa, V domains shown, humanized bivalent anti-NKG2D mAb, IgG1 with ablation variants; also called mAb B[NKG2D]_H2L2_IgG1_PVA_/S267K) VH: EVQLVQSGAEVKKPGESLRISCKASGYTFTSYWMNWVRQMPGKGLEWMGRIDPYDSETHYNPSFQGHVTISVDKSISTAYLQWSSLKASDTAMYYCAKMGDYSFDYWGQGTLVTVSS VL: DIQLTQSPDSLAVSLGERATINCKASGNIHNYLAWYQQKPGQSPKVLVYNAKTLADGVPSRFSGSGSGTDYTLTISSLQAEDVAVYYCQHFWSTTWTFGGGTKVEIKR
3.28	0.00943	2.88e+06	XENP27605 (antibody, human IgG1, kappa, V domains shown, humanized bivalent anti-NKG2D mAb, IgG1 with ablation variants; also called mAb B[NKG2D]_H3_L1.1_IgG1_PVA_/S267K) VH: EVQLVESGGGLVQPGGSLRLSCAASGYTFTSYWMNWVRQAPGKGLVWVSRIDPYDSETHYNQKVKGRFTISVDKAKSTAYLQMNSLRAEDTAVYYCAKMGDYSFDYWGQGTLVTVSS VL: DIQLTQSPSSLSASVGDRVTITCRASGNIHNYLAWYQQKPGKSPKVLVYNAKTLADGVPSRFSGSGSGTDYTLTISSLQPEDFATYYCQHFWSTPWTFGGGTKVEIKR
1.15	0.00204	1.77e+06	XENP27606 (antibody, human IgG1, kappa, V domains shown, humanized bivalent anti-NKG2D mAb, IgG1 with ablation variants; also called mAb B[NKG2D]_H3L2_IgG1_PVA_/S267K) VH: EVQLVESGGGLVQPGGSLRLSCAASGYTFTSYWMNWVRQAPGKGLVWVSRIDPYDSETHYNQKVKGRFTISVDKAKSTAYLQMNSLRAEDTAVYYCAKMGDYSFDYWGQGTLVTVSS VL: DIQLTQSPDSLAVSLGERATINCKASGNIHNYLAWYQQKPGQSPKVLVYNAKTLADGVPSRFSGSGSGTDYTLTISSLQAEDVAVYYCQHFWSTTWTFGGGTKVEIKR

biological target: T2, cynomolgus CD8 (captured on the Octet biosensor) (cynomolgus); assay: Octet (BLI); cynomolgus CD8 captured, dipped into multiple concentrations of the one-arm mAb
T2 construct: Construct not described; also called cyno CD8; cyno CD8a

Kd [nM]	koff [s⁻¹]	kon [M⁻¹ s⁻¹]	Binder
77.6	0.00909	117000	XENP26009 (antibody, V domains shown, also called OKT8_H2.152_L1.103 one-arm mAb) VH: QVQLVQSGAEVKKPGASVKVSCKASGFNIKDTYIHWVRQAPGKGLEWMGRIDPDNGETLYASKFQGRVTITADTSINTAYMELSRLRSDDTAVYYCGRGYGYYVFDHWGQGTTVTVSS VL: AIKMTQSPSSLSASVGDRVTITCRTSRSISKYLAWYQEKPGKTNKLLIYSGSTLQSGIPSRFSGSGSGTDFTLTISSLQPEDFATYYCQQHNENPLTFGAGTKLEIK
55.1	0.00672	122000	XENP26236 (antibody, V domains shown, also called OKT8_H2.159_L1.103 one-arm mAb) VH: QVQLVQSGAEVKKPGASVKVSCKASGFNIKDTYIHWVRQAPGKGLEWMGRIDPDNGETLYASKFQGRVTMTADTSINTAYMELSRLRSDDTAVYYCGRGWGYYVFDHWGQGTTVTVSS VL: AIKMTQSPSSLSASVGDRVTITCRTSRSISKYLAWYQEKPGKTNKLLIYSGSTLQSGIPSRFSGSGSGTDFTLTISSLQPEDFATYYCQQHNENPLTFGAGTKLEIK
39.2	0.00967	247000	XENP26230 (antibody, V domains shown, also called OKT8_H2.153_L1.103 one-arm mAb) VH: QVQLVQSGAEVKKPGASVKVSCKASGFNIKDTYIHWVRQAPGKGLEWMGRIDPDNGETLYASKFQGRVTMTADTSINTAYMELSRLRSDDTAVYYCGRGYGYYVFDHWGQGTTVTVSS VL: AIKMTQSPSSLSASVGDRVTITCRTSRSISKYLAWYQEKPGKTNKLLIYSGSTLQSGIPSRFSGSGSGTDFTLTISSLQPEDFATYYCQQHNENPLTFGAGTKLEIK
35.7	0.0114	319000	XENP26232 (antibody, V domains shown, also called OKT8_H2.155_L1.103 one-arm mAb) VH: QVQLVQSGAEVKKPGASVKVSCKASGFNIKDTYIHWVRQAPGKGLEWMGRIDPDNGETLYASKFQGRVTITADTSINTAYMELSRLRSDDTAVYYCGRGYGYYYFDHWGQGTTVTVSS VL: AIKMTQSPSSLSASVGDRVTITCRTSRSISKYLAWYQEKPGKTNKLLIYSGSTLQSGIPSRFSGSGSGTDFTLTISSLQPEDFATYYCQQHNENPLTFGAGTKLEIK
66.6	0.00882	133000	XENP26239 (antibody, V domains shown, also called OKT8_H2.162_L1.103 one-arm mAb) VH: QVQLVQSGAEVKKPGASVKVSCKASGFNIKDTYIHWVRQAPGKGLEWMGRIDPDNDETLYASKFQGRVTITADTSINTAYMELSRLRSDDTAVYYCGRGYGYYYFDHWGQGTTVTVSS VL: AIKMTQSPSSLSASVGDRVTITCRTSRSISKYLAWYQEKPGKTNKLLIYSGSTLQSGIPSRFSGSGSGTDFTLTISSLQPEDFATYYCQQHNENPLTFGAGTKLEIK
30	0.00968	322000	XENP26242 (antibody, V domains shown, also called OKT8_H2.165_L1.103 one-arm mAb) VH: QVQLVQSGAEVKKPGASVKVSCKASGFNIKDTYIHWVRQAPGKGLEWMGRIDPDNDETLYASKFQGRVTMTADTSINTAYMELSRLRSDDTAVYYCGRGYGYYYFDHWGQGTTVTVSS VL: AIKMTQSPSSLSASVGDRVTITCRTSRSISKYLAWYQEKPGKTNKLLIYSGSTLQSGIPSRFSGSGSGTDFTLTISSLQPEDFATYYCQQHNENPLTFGAGTKLEIK
80.7	0.00962	119000	XENP26019 (antibody, V domains shown, also called OKT8_H2.152_L1.113 one-arm mAb) VH: QVQLVQSGAEVKKPGASVKVSCKASGFNIKDTYIHWVRQAPGKGLEWMGRIDPDNGETLYASKFQGRVTITADTSINTAYMELSRLRSDDTAVYYCGRGYGYYVFDHWGQGTTVTVSS VL: AIKMTQSPSSLSASVGDRVTITCRTSRSISIYLAWYQEKPGKTNKLLIYKGSTLQSGIPSRFSGSGSGTDFTLTISSLQPEDFATYYCQQANENPLTFGAGTKLEIK
75.4	0.0225	298000	XENP26240 (antibody, V domains shown, also called OKT8_H2.163_L1.103 one-arm mAb) VH: QVQLVQSGAEVKKPGASVKVSCKASGFNIKDTYIHWVRQAPGKGLEWMGRIDPDNDETLYASKFQGRVTITADTSINTAYMELSRLRSDDTAVYYCGRGWGYYVFDHWGQGTTVTVSS VL: AIKMTQSPSSLSASVGDRVTITCRTSRSISKYLAWYQEKPGKTNKLLIYSGSTLQSGIPSRFSGSGSGTDFTLTISSLQPEDFATYYCQQHNENPLTFGAGTKLEIK
66.6	0.0133	200000	XENP26233 (antibody, V domains shown, also called OKT8_H2.156_L1.103 one-arm mAb) VH: QVQLVQSGAEVKKPGASVKVSCKASGFNIKDTYIHWVRQAPGKGLEWMGRIDPDNGETLYASKFQGRVTITADTSINTAYMELSRLRSDDTAVYYCGRGWGYYVFDHWGQGTTVTVSS VL: AIKMTQSPSSLSASVGDRVTITCRTSRSISKYLAWYQEKPGKTNKLLIYSGSTLQSGIPSRFSGSGSGTDFTLTISSLQPEDFATYYCQQHNENPLTFGAGTKLEIK
67.4	0.00767	114000	XENP26237 (antibody, V domains shown, also called OKT8_H2.160_L1.103 one-arm mAb) VH: QVQLVQSGAEVKKPGASVKVSCKASGFNIKDTYIHWVRQAPGKGLEWMGRIDPDNDETLYASKFQGRVTMTADTSINTAYMELSRLRSDDTAVYYCGRGYGYYVFDHWGQGTTVTVSS VL: AIKMTQSPSSLSASVGDRVTITCRTSRSISKYLAWYQEKPGKTNKLLIYSGSTLQSGIPSRFSGSGSGTDFTLTISSLQPEDFATYYCQQHNENPLTFGAGTKLEIK
